Test results taken from patent US20160047001A1, “Sept4/ARTS AS A TUMOR SUPPRESSOR IN THE DIAGNOSIS, PROGNOSIS AND TREATMENT OF HEPATIC DISORDERS” (CARMEL-HAIFA UNIVERSITY ECONOMIC CORPORATION LTD., priority 2013, published 2016).
“Also recorded” adds a separate entry of the source.

B1: sh-ARTS-3: miR30-designed shRNA specifically targeting ARTS, in pLMP retroviral vector (nucleic acid)
chain: TGCTGTTGACAGTGAGCGACGGGTGGTCACTGATTCCTGTTAGTGAAGCCACAGATGTAACAGGAATCAGTGACCACCCGCTGCCTACTGCCTCGGA
B2: sh-panSept4: miR30-designed shRNA targeting all Sept4-isoforms, including ARTS (nucleic acid)
chain: TGCTGTTGACAGTGAGCGCAAGCACGCAGTGGATATAGAATAGTGAAGCCACAGATGTATTCTATATCCACTGCGTGCTTATGCCTACTGCCTCGGA
B3: sh-ARTS-2: miR30-designed shRNA specifically targeting ARTS, in pLMP retroviral vector (nucleic acid)
chain: TGCTGTTGACAGTGAGCGAAACAGGCCGAGTAGCACCACATAGTGAAGCCACAGATGTATGTGGTGCTACTCGGCCTGTTCTGCCTACTGCCTCGGA
B4: sh-ARTS-1: miR30-designed shRNA specifically targeting ARTS, in pLMP retroviral vector (nucleic acid)
chain: TGCTGTTGACAGTGAGCGCAAGGGAACAGGCCGAGTAGCATAGTGAAGCCACAGATGTATGCTACTCGGCCTGTTCCCTTATGCCTACTGCCTCGGA

Tests used:
[1] = tested on: ARTS mRNA; assay: RT-PCR of ARTS mRNA after exposure to chromatin-modifying drugs; format: cell-based, human; conditions: for ARTS mRNA level: HCC cell-lines, individual treatment, AZA 10 μM, TSA 1 μM; for ARTS levels: PH5CH non-malignant hepatocyte cell-line
Description: Quantitative reverse transcription polymerase chain reactions (qRT-PCR) incorporating SYBR Green (Applied Biosystems) were carried-out using a Realplex qPCR Mastercycler (Eppendorf; Hauppauge, N.Y.). For semi-quantitative PCR, total RNA was extracted from cell-lines using Trizol reagent (Invitrogen, Carlsbad, Calif.) and in turn, was used to synthesize cDNA using random primers, reagents, and protocol provided in the Superscript 1st strand synthesis kit (Invitrogen). Normalized amounts of cDNA served as template in standard PCR using AmpliTaq DNA polymerase (Applied Biosystems). Immunoblotting was performed as previously described in (7). Cell extracts were prepared from tumor and adjacent non-tumor control tissues that were excised from the liver of sacrificed mice, homogenized by Polytron PT 2100 (Brinkman) in Triton X-100 lysis buffer and clarified by centrifugation. Extracts were normalized for protein concentration by Bradford assay (BioRad) prior to immunoblotting procedures. Signal detection was performed with enhanced chemiluminescence kit (Amersham). The following primary antibodies were used: anti-A6 (gift from Dr. V. Factor NCI/NIH), anti-Flag and anti-β-actin (Sigma); anti-XIAP (Becton Dickinson); anti-cIAP-1 (R&D Systems); anti-β-catenin and anti-Survivin (Cell Signaling), anti-cytokeratin-8 (Fitzgerald Indust. Intl., Concord, Mass.). 5-Aza-2′deoxycytidine (AZA), Trichostatin A (TSA), and cycloheximide (CHX) were purchased from Sigma-Alrich. Tumor-necrosis factor-α, the anti-Fas antibody (Jo-2), and the in vitro methylated genomic Hela DNA were obtained from Peprotech, Pharminogen, and New England Biolabs, respectively. To examine the possibility of epigenetic regulation, chromatin-modifying drugs were tested for their ability to influence ARTS expression. Cells were exposed to DNA-methyltransferase and HDAC inhibitors 5′ aza-cytosine (AZA) and trichostatin A (TSA), respectively.

[2] = tested on: ARTS; assay: Western blot of ARTS knockdown by hairpins in NIH3T3 fibroblasts; format: cell-based
Description: (§1) miR30-designed shRNAs were subcloned into the pLMP (MSCV-based) retroviral vector as previously described (30). Briefly, individual shRNAs were synthesized as 97 base-pair oligos (Sigma Genosys), PCR-amplified, ligated into pLMP following EcoRI/XhoI-digestion.
Immunoblotting was performed as previously described in (7). Cell extracts were prepared from tumor and adjacent non-tumor control tissues that were excised from the liver of sacrificed mice, homogenized by Polytron PT 2100 (Brinkman) in Triton X-100 lysis buffer and clarified by centrifugation. Extracts were normalized for protein concentration by Bradford assay (BioRad) prior to immunoblotting procedures. Signal detection was performed with enhanced chemiluminescence kit (Amersham). The following primary antibodies were used: anti-A6 (gift from Dr. V. Factor NCI/NIH), anti-Flag and anti-β-actin (Sigma); anti-XIAP (Becton Dickinson); anti-cIAP-1 (R&D Systems); anti-β-catenin and anti-Survivin (Cell Signaling), anti-cytokeratin-8 (Fitzgerald Indust. Intl., Concord, Mass.). 5-Aza-2′deoxycytidine (AZA), Trichostatin A (TSA), and cycloheximide (CHX) were purchased from Sigma-Alrich. Tumor-necrosis factor-α, the anti-Fas antibody (Jo-2), and the in vitro methylated genomic Hela DNA were obtained from Peprotech, Pharminogen, and New England Biolabs, respectively.

[3] = tested on: Sept4/H5-Flag; assay: Western blot (anti-Flag) of Sept4/H5-Flag knockdown in NIH3T3 fibroblasts; format: cell-based; conditions: NIH3T3 fibroblasts stably expressing Sept4/H5-Flag; retroviral shRNA; anti-Flag immunoblot
Description: FIG. 5I. A pan-Sept4- and Sept4/H5-specific short-hairpins promote efficient knowndown. […] NIH3T3 fibroblasts stably expressing Flag-epitope tagged Sept4/H5 (Sept4/H5-Flag) were transduced with retroviruses harboring the indicated shRNAs, a non-silencing control, or left un-infected Immunoblotting was performed with anti-Flag antibody to detect Sept4/H5-Flag expression (red arrow).
as §1
Immunoblotting was performed as previously described in (7). Cell extracts were prepared from tumor and adjacent non-tumor control tissues that were excised from the liver of sacrificed mice, homogenized by Polytron PT 2100 (Brinkman) in Triton X-100 lysis buffer and clarified by centrifugation. Extracts were normalized for protein concentration by Bradford assay (BioRad) prior to immunoblotting procedures. Signal detection was performed with enhanced chemiluminescence kit (Amersham). […]

[4] = tested on: PHM-1 hepatoblasts; assay: Growth of PHM-1 hepatoblasts after sub-cutaneous transplantation into host mice; format: in vivo; conditions: PHM-1 cells carrying the hairpin, sub-cutaneous injection into host mice
Source text: FIG. 5D. Growth of PHM-1 hepatoblasts following their sub-cutaneous transplantation into host mice. Values are the mean±standard deviation of four independent experiments. P-values: *P=0.04, **P=0.03, and ***P=0.01.
Details on isolation, culture, retrovirus-mediated gene transfer, and sub-cutaneous transplantation of hepatoblasts can be found in (30). Cell viability was monitored by propidium iodide (PI) nuclear staining and flow cytometric analysis.

Molecule	ARTS mRNA level [1]	ARTS levels [1]	ARTS levels (knockdown) [2]	other results
Nc1ncn([C@H]2C[C@H](O)[C@@H](CO)O2)c(=O)n1 [AZA, 5-Aza-2′deoxycytidine]	upregulation of ARTS mRNA; also recorded: induced ARTS mRNA to levels comparable to those observed in normal hepatocytes	little appreciable effect		
CC(/C=C/C(=O)NO)=C\[C@@H](C)C(=O)c1ccc(N(C)C)cc1 [TSA, Trichostatin A]	upregulation of ARTS mRNA; also recorded: induced ARTS mRNA to levels comparable to those observed in normal hepatocytes	little appreciable effect		
B1			capable of reducing ARTS levels	
B2			capable of reducing ARTS levels	Sept4/H5 knockdown [3]: highly effective Sept4/H45 knockdown; tumor growth [4]: promoted tumor growth
B3			capable of reducing ARTS levels	
B4			capable of reducing ARTS levels	
